Assay results: patent US20260274933A1 (Innovent, published 2026)

Legend:
[1] = target: T1, biotin-labeled VEGF A165 (ACRO, Catalog No. VE5-H8210) (human, UniProt P15692-4 27-191, biotin-labeled); test: blocking ELISA: biotin VEGF A165 captured on streptavidin, binding of VEGFR-Fc blocked; value printed as EC50 in the table under the curves, unit from the axis
T1 construct: also called hVEGF A
Method: SA (Thermo, Catalog No. 21125) was diluted to 1 μg/mL, and 100 μL/well of SA was plated in a microplate at 4° C. overnight. The plate was washed 3 times with PBST and blocked with 3% BSA for 1.5 h. […] The plate was washed 6 times with PBST, the color development was performed with TMB for 5 min, and OD450 nm was read after stopping.

human VEGF165 (R&D) [2] = target: T2, human VEGF165 (R&D) (human, UniProt P15692-4 27-191); test: BLI (ForteBio), monovalent binding
T2 construct: Antigen of the ForteBio assay

human VEGF165 (R&D) [3] = target: T2, human VEGF165 (R&D); test: BLI (ForteBio), bivalent binding; * dissociation constant exceeding ForteBio detection limits
human VEGF165 (R&D) [4] = target: T2, human VEGF165 (R&D); test: BLI (ForteBio), bivalent binding

T2 sequence (P15692 other isoform, or with tags, fused parts or gaps limits assumed): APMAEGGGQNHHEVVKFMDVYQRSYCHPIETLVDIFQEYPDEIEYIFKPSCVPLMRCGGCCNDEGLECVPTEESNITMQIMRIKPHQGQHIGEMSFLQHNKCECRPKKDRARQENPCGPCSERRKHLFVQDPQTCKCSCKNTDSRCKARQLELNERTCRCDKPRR
T1 sequence (P15692 other isoform, or with tags, fused parts or gaps limits assumed): as above

EC50 [1]: 0.0149 µg/mL
Kd (human VEGF165 (R&D) [2]): 6.11 nM
koff (human VEGF165 (R&D) [2]): 0.00116 s⁻¹
kon (human VEGF165 (R&D) [2]): 189000 M⁻¹ s⁻¹
koff (human VEGF165 (R&D) [3]): ≤ 0.0002 s⁻¹
Kd (human VEGF165 (R&D) [4]): 0.843 nM
kon (human VEGF165 (R&D) [4]): 237000 M⁻¹ s⁻¹
B1: LA42F8 (VEGFA VHH) (VHH)
VHH: QLQLVESGGGLVQPGGSLRLSCAASGFNLDYYPIGWFRQAPGKEREGVSCISSVGSTNYADSVKGRFTISRDNAKNTVYLQMNSLKPEDTAVYYCAADPLCSALILPPPFLSWGQGTQVTVSS
notes: Alpaca anti-VEGF A VHH; also called LA42F8 supernatant
